Measurements reported in PMC3090699 (Amino acids, 2010).

Biological target: the molecule itself
Assay: SEC

B1: methionine adenosyltransferase from Methanococcus jannaschii, wild type (enzyme, UniProt Q58605 1-406, looked up)
chain: MRNIIVKKLDVEPIEERPTEIVERKGLGHPDSICDGIAESVSRALCKMYMEKFGTILHHNTDQVELVGGHAYPKFGGGVMVSPIYILLSGRATMEILDKEKNEVIKLPVGTTAVKAAKEYLKKVLRNVDVDKDVIIDCRIGQGSMDLVDVFERQKNEVPLANDTSFGVGYAPLSTTERLVLETERFLNSDELKNEIPAVGEDIKVMGLREGKKITLTIAMAVVDRYVKNIEEYKEVIEKVRKKVEDLAKKIADGYEVEIHINTADDYERESVYLTVTGTSAEMGDDGSVGRGNRVNGLITPFRPMSMEAASGKNPVNHVGKIYNILANLIANDIAKLEGVKECYVRILSQIGKPINEPKALDIEIITEDSYDIKDIEPKAKEIANKWLDNIMEVQKMIVEGKVTTF
- stoichiometry N: 2
